This data set concerns the target T1, GhGT26 (GST fusion) (Gossypium hirsutum, UniProt A0A8J9W0A6 1-391).
T1 sequence: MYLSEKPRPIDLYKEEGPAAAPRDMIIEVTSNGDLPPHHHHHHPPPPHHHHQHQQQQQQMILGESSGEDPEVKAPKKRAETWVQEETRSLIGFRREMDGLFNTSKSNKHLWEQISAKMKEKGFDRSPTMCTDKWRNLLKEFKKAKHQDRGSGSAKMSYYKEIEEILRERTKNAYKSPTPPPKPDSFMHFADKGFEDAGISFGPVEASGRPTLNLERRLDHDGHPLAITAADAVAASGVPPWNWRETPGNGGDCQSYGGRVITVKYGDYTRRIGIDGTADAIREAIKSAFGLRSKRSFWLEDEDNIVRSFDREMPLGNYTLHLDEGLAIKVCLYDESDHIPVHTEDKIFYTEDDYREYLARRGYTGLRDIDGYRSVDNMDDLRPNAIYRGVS
Nature of the data set: EMSA; signal dramatically reduced by unlabeled competitor; Oligos annealed in 50 mM NaCl (70 °C 5 min, then room temperature); EMSA binding buffer, pH and temperature not given (as in ref. 48). The settings on record: protein: recombinant; tags: GST (pGEX6p-1); label: digoxigenin; blunt (reverse complement stated). On the technique in general: Mobility shift assays separate free from complexed probe on a gel.

B1: MRE4 (dsDNA)
DNA 1: TATCTCACCTCTCACCTCTCACCGT
DNA 2: ACGGTGAGAGGTGAGAGGTGAGATA
For B1, the binding result is “binds”.

B2: Site1-type (GT-3a) (dsDNA)
DNA 1: GCGTTACCGTTACCGTTACCAA
DNA 2: TTGGTAACGGTAACGGTAACGC
Take B2: the binding result is reported as “binds”.

B3: MRE3 (dsDNA)
DNA 1: TCTAACCTACTAACCTACTAACCTACCA
DNA 2: TGGTAGGTTAGTAGGTTAGTAGGTTAGA
As for B3, the binding result is reported as “binds”.

These data come from article PMC9610538, “Trihelix Transcriptional Factor GhGT26 of Cotton Enhances Salinity Tolerance in Arabidopsis”.
